Experimental data reported in US20160272716A1 (AGENSYS, published 2016).
Numbering of substitutions follows the chain as printed. One block for each molecule: values may come before it.

How the values were obtained:
[1] = biological target: T1, human FLT3 expressed on the cell surface (human, UniProt P36888 27-993); experiment: FACS, biotinylated isotype control 10 ug/ml, Streptavidin-PE, REH cells (ALL)
T1 construct: FLT3 on human leukemia cell lines, on recombinant cells and on primary blood cells; also called Flk2; STK1

[2] = biological target: T1, human FLT3 expressed on the cell surface; experiment: FACS, biotinylated isotype control 10 ug/ml, Streptavidin-PE, EOL-1 cells (AML)
[3] = biological target: T1, human FLT3 expressed on the cell surface; experiment: FACS, biotinylated isotype control 10 ug/ml, Streptavidin-PE, PL-21 cells (AML)
[4] = biological target: T1, human FLT3 expressed on the cell surface; experiment: FACS, biotinylated isotype control 10 ug/ml, Streptavidin-PE, SEM cells (B-ALL)
[5] = biological target: T1, human FLT3 expressed on the cell surface; experiment: FACS, biotinylated isotype control 10 ug/ml, Streptavidin-PE, SKM-1 cells (AML)
[6] = biological target: T1, human FLT3 expressed on the cell surface; experiment: FACS, biotinylated isotype control 10 ug/ml, Streptavidin-PE, THP-1 cells (AML)
[7] = biological target: T1, human FLT3 expressed on the cell surface; experiment: FACS, biotinylated isotype control 10 ug/ml, Streptavidin-PE, NALM-1 cells (CML)
[8] = biological target: T1, human FLT3 expressed on the cell surface; experiment: FACS, biotinylated isotype control 10 ug/ml, Streptavidin-PE, MOLM-13 cells (AML)
[9] = biological target: T1, human FLT3 expressed on the cell surface; experiment: FACS, biotinylated isotype control 10 ug/ml, Streptavidin-PE, MV-4-11 cells (AML)
[10] = biological target: T1, human FLT3 expressed on the cell surface; experiment: FACS, biotinylated isotype control 10 ug/ml, Streptavidin-PE, OCI-AML2 cells (AML)
[11] = biological target: T1, human FLT3 expressed on the cell surface; experiment: FACS, biotinylated isotype control 10 ug/ml, Streptavidin-PE, RS4;11 cells (B-ALL)
[12] = biological target: T1, human FLT3 expressed on the cell surface; experiment: FACS, biotinylated isotype control 10 ug/ml, Streptavidin-PE, MONOMAC-1 cells (AML)
[13] = biological target: T1, human FLT3 expressed on the cell surface; experiment: competition FACS on MOLM-13 cells: FL titrated 0.1 to 100 ng/ml, 30 min pre-incubation; displaced antibody: biotinylated cHv62-1b37.1 at 10 ug/ml
Procedure: (§1) In another experiment, The ability of anti-FLT3 antibodies, CHv62.21 and v62-1b37.1, to bind to FLT3 expressed on the surface of human leukemia MOLM-13 cell line was evaluated in the presence of human FLT3 Ligand (hFL). Isotype control antibody, AGS91.1-pAF, was used as a negative control.
(§2) Briefly, The MOLM-13 cells were seeded at a density of 50,000 cells per well onto round-bottom 96 well plates. The plates were washed one time with 150 μl per well of PBS. The cells were Fc blocked (20 μg/mL) at a volume of 50 μl per well in FACS buffer (PBS+2% FBS+0.1% sodium azide) to reduce non-specific binding. Cells were incubated at 4° C. for 15 minutes. Human FLT3 Ligand was added to appropriate wells at 100 ng/mL and serially diluted 1:2 across the plate for a total of 11 points. Cells were incubated for 30 minutes at 4° C. prior to adding biotinylated FLT3 antibodies. After incubation, the biotinylated anti-FLT3 antibodies and isotype control antibody were prepared in FACS buffer at 10 μg/mL and 1 μg/mL and 25 μl was added to wells and incubated for 1 hour at 4° C. Cells were washed two times with FACS buffer and Streptavidin-PE (Jackson immune) was added 100 μl per well and incubated for 1 hour at 4° C. Cells were washed two times with FACS buffer and read on the Attune Cytometer (Life technologies) and analyzed in FlowJo (Tree Star) software.

[14] = biological target: T1, human FLT3 expressed on the cell surface; experiment: FACS on MOLM-13 cells: 30 min pre-incubation with human FLT3 ligand, then biotinylated antibody, streptavidin-PE
Procedure: as §1, §2

[15] = biological target: T1, human FLT3 expressed on the cell surface; experiment: flow cytometry, cell surface FLT3
[16] = biological target: T1, human FLT3 expressed on the cell surface; experiment: FACS, biotinylated antibody 10 ug/ml, Streptavidin-PE, REH cells (ALL)
Procedure: (§3) CHv62.21 was tested for binding to AML and B-ALL cell lines grown in vitro. (See, FIG. 15A-M). Briefly, CHv62.21 and an isotype matched control antibody were biotinylated using NHS LC biotin. In vitro, exponentially grown cancer cell lines were used for all experiments. Cells were harvested by and washed by centrifugation. Cells were Fc blocked to reduce non-specific binding. Antibodies were diluted to 10 ug/ml final concentration and co-incubated with cells at 4° C. for 1 hour. At the end of the incubation, cells were washed and incubated with secondary detection Streptavidin-PE antibody at a final 1:200 (2.5 ug/ml) dilution for 1 hour at 4° C. After washing un-bound secondary antibody, cells were analyzed by FACS and geometric mean fluorescence was determined and reported. Fluorescence ratio was calculated as follows: Geo mean cHv62.21/Geo mean isotype control=MFR, a measure of fold expression above isotype control.
(§4) Geometric Mean values and Mean Florescence ratios (MFR) values were obtained (Table VI) and histograms are shown (FIG. 15A-M).

[17] = biological target: T1, human FLT3 expressed on the cell surface; experiment: FACS, biotinylated antibody 10 ug/ml, Streptavidin-PE, EOL-1 cells (AML)
Procedure: as §3, §4

[18] = biological target: T1, human FLT3 expressed on the cell surface; experiment: FACS, biotinylated antibody 10 ug/ml, Streptavidin-PE, PL-21 cells (AML)
Procedure: as §3, §4

[19] = biological target: T1, human FLT3 expressed on the cell surface; experiment: FACS, biotinylated antibody 10 ug/ml, Streptavidin-PE, SEM cells (B-ALL)
Procedure: as §3

[20] = biological target: T1, human FLT3 expressed on the cell surface; experiment: FACS, biotinylated antibody 10 ug/ml, Streptavidin-PE, SKM-1 cells (AML)
Procedure: as §3, §4

[21] = biological target: T1, human FLT3 expressed on the cell surface; experiment: FACS, biotinylated antibody 10 ug/ml, Streptavidin-PE, THP-1 cells (AML)
Procedure: as §3, §4

[22] = biological target: T1, human FLT3 expressed on the cell surface; experiment: FACS, biotinylated antibody 10 ug/ml, Streptavidin-PE, NALM-1 cells (CML)
Procedure: as §3

[23] = biological target: T1, human FLT3 expressed on the cell surface; experiment: FACS, biotinylated antibody 10 ug/ml, Streptavidin-PE, MOLM-13 cells (AML)
Procedure: as §3

[24] = biological target: T1, human FLT3 expressed on the cell surface; experiment: FACS, biotinylated antibody 10 ug/ml, Streptavidin-PE, MV-4-11 cells (AML)
Procedure: as §3, §4

[25] = biological target: T1, human FLT3 expressed on the cell surface; experiment: FACS, biotinylated antibody 10 ug/ml, Streptavidin-PE, OCI-AML2 cells (AML)
Procedure: as §3, §4

[26] = biological target: T1, human FLT3 expressed on the cell surface; experiment: FACS, biotinylated antibody 10 ug/ml, Streptavidin-PE, RS4;11 cells (B-ALL)
Procedure: as §3, §4

[27] = biological target: T1, human FLT3 expressed on the cell surface; experiment: FACS, biotinylated antibody 10 ug/ml, Streptavidin-PE, MONOMAC-1 cells (AML)
Procedure: as §3, §4

T1 sequence (P36888 27-993 T227M limits assumed): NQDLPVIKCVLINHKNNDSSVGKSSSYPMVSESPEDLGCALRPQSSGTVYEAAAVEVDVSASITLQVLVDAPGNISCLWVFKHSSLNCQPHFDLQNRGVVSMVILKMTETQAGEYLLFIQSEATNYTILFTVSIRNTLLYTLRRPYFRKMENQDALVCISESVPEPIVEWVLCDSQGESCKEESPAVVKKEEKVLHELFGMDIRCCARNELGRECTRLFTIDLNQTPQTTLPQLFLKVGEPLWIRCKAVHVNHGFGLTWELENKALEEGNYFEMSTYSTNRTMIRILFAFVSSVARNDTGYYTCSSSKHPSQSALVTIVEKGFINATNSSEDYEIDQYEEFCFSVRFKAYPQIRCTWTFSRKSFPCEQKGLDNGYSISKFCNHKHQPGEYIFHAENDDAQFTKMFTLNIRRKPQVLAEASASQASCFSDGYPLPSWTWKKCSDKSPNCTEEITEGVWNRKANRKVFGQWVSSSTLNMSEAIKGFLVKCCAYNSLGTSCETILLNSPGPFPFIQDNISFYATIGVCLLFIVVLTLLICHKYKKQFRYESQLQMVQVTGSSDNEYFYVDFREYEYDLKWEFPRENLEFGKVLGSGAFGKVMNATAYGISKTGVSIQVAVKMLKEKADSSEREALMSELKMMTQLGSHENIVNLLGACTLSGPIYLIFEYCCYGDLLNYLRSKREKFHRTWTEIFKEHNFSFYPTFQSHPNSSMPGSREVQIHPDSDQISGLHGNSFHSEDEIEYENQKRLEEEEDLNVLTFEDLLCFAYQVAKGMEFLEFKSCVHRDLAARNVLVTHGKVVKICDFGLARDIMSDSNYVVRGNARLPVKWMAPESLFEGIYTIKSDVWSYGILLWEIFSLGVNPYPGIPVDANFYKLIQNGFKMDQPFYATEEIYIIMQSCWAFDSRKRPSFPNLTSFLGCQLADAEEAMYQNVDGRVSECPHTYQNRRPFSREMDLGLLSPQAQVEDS

B1: human FLT3 ligand (ligand, UniProt P49771 27-185, looked up)
chain: TQDCSFQHSPISSDFAVKIRELSDYLLQDYPVTVASNLQDEELCGGLWRLVLAQRWMERLKTVAGSKMQGLLERVNTEIHFVTKCAFQPPPSCLRFVQTNISRLLQETSEQLVALKPWITRQNFSRCLELQCQPDSSTLPPPWSPRPLEATAPTAPQPP
modifications: biotinylated (Sulfo-NHS-LC-Biotin) in the Luminex assay
notes: later experiments say human FLT3 ligand; Treated as one molecule; also called hFL
IC50 (read off the curve) [13]: ~10 ng/mL

B2: v62-1b37.1 (antibody, human IgG1, kappa, V domains shown)
VH: EVQLVESGGGVVRPGGSLRLSCAASGFTFDDYGMSWVRQAPGKGLEWVSGINWNGGSTGYADSVKGRFTISRDDAKNSLYLQMNSLRAEDTALYHCARDGYTYGPFDNWGQGTLVTVSS
VL: DIQMTQSPSSLSASVGDRVTITCRASQGIRNDLGWYQQKPGKAPKRLIYAASSLQSGVPSRFSGSGSGTEFTLTISSLQPEDFATYYCLQHNSYPYTFGQGTKLEIKR
modifications: biotinylated in the MOLM-13 FACS
notes: also called cHv62-1b37.1
binding result [14]: binds

B3: v62-1b21 (hybridoma MAb) (antibody, V domains shown)
VH: EVQLVESGGGLVRPGGSLRLSCAASGFTFSGYSINWVRQAPGKGLEWVSSISSSSNYIYYADSVKGRFTISRDNAKNSLYLQMNSLRAEDTAVYYCAREGFIAGTTFDAFDIWGQGTMVTVSS
VL: B2 VL with S93G, Y94F
notes: also called AGS62.21; v62.21
binding result [15]: binds

Continued, values first:

Geometric Mean fluorescence [1]: 235
Geometric Mean fluorescence [2]: 281
Geometric Mean fluorescence [3]: 570
Geometric Mean fluorescence [4]: 212
Geometric Mean fluorescence [5]: 445
Geometric Mean fluorescence [6]: 474
Geometric Mean fluorescence [7]: 262
Geometric Mean fluorescence [8]: 320
Geometric Mean fluorescence [9]: 366
Geometric Mean fluorescence [10]: 329
Geometric Mean fluorescence [11]: 213
Geometric Mean fluorescence [12]: 338
Molecule: isotype matched control antibody (Example 9)

MFR (Geo mean cHv62.21/Geo mean isotype control) [16]: 69 fold
MFR (Geo mean cHv62.21/Geo mean isotype control) [17]: 50 fold
MFR (Geo mean cHv62.21/Geo mean isotype control) [18]: 7 fold
MFR (Geo mean cHv62.21/Geo mean isotype control) [19]: 623 fold
MFR (Geo mean cHv62.21/Geo mean isotype control) [20]: 7 fold
MFR (Geo mean cHv62.21/Geo mean isotype control) [21]: 42 fold
MFR (Geo mean cHv62.21/Geo mean isotype control) [22]: 49 fold
MFR (Geo mean cHv62.21/Geo mean isotype control) [23]: 44 fold
MFR (Geo mean cHv62.21/Geo mean isotype control) [24]: 8 fold
MFR (Geo mean cHv62.21/Geo mean isotype control) [25]: 17 fold
MFR (Geo mean cHv62.21/Geo mean isotype control) [26]: 86 fold
MFR (Geo mean cHv62.21/Geo mean isotype control) [27]: 34 fold
B4: CHv62.21 MAb (antibody, human IgG1, kappa, V domains shown)
VH: B3 VH
VL: B2 VL with S93G, Y94F
modifications: C-terminal lysine deleted in most of the purified MAb; N-terminal pyroglutamate in a part of it; biotinylated with NHS LC biotin for the FACS of Table VI
notes: Recombinant, CHO-expressed, human IgG1 / kappa; variable regions from hybridoma v62-1b21; ATCC PTA-121831; also called cHv62-1b21.1
